# Source: the supplement of paper PMC12042874
# ± gives the uncertainty stated by the source.
# Test: amyloid nucleation score (Sup35N fusion, yeast selection) (log enrichment); library NNK3; higher = more nucleation; inactive = no reads after selection
# Procedure, shortened: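 Nucleation score is defined as the DiMSum log enrichment of output over input reads, with centring on the mode score of non-aggregating sequences. A minimum of 100 input reads was required for each sequence. Reads came from Illumina sequencing of plasmid inserts from psi-negative yeast expressing Sup35N fused to peptides of 20 random codons, induced with 100 μM copper sulfate for 24 hours and grown 7 days at 30°C on medium lacking adenine and uracil.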
row,Substance,amyloid nucleation score
1,ASRGRRLCSLYTHEGGSS,inactive
2,TGGWTNNEQHFENSGMEVGT,inactive
3,EGSEGSDMSRTFFYICYFIL,inactive
4,LSLSSFCF,1.3 ± 0.17
5,DSYCGLRDEWITRWLGCRWM,inactive
6,SNYPWCSSSYYLGKISDLCS,inactive
7,VTIITMEIWL,1.64 ± 0.06
8,RMILNMCCTITDRKCHSVSD,2.39 ± 0.055
9,QWLAEGYT,inactive
10,NNTVDDSVFWNELDGHTWLV,inactive
11,MLISERIFQYTCGNYS,2.09 ± 0.085
12,GSSRPVVSLTSDLRRCVGKD,inactive
13,YINQWCTCVT,inactive
14,NQCAS,inactive
15,YRYHIMVMKAVIDTNSRKGW,inactive
16,DDCIIRAGWDLLQR,inactive
17,AYRINRTTDRIIIDSGDVVV,inactive
18,VKKLSKVHDSCGMREVLGCH,-0.36 ± 1.1
19,KWIVQAILSSEL,inactive
20,KFLYRCINRLANSLIRELPI,inactive
21,NRIFIGQVFRIIGPWLGMYH,inactive
22,IYDCFVTGSFLRK,inactive
23,WRACHSRSSVVNWISLPDYS,inactive

row,Substance,amyloid nucleation score
1,ISPAESFPSSPERIHIVD,-0.789 ± 0.9
2,LSPSVFVNSNRLMTESSRGF,inactive
3,LGLDTSSSVYCQSCGVRFSV,inactive
4,QDVVNPPLFY,inactive
5,SDVYWISLFVATSICCRSGA,inactive
6,DERKNSIDSR,inactive
7,RFRFILRCC,inactive
8,SSHGSRGITVDT,inactive
9,RPAWTRTSTVDKLQIELRYE,inactive
10,VHAMWKSICNTSCML,2.53 ± 0.052
11,ILEVGRQCMDGFCSKFNGEY,inactive
12,NTSLRYIKLFSVNDALPLP,inactive
13,STTHEYDI,inactive
14,SAIRMPAYDYTWRGLYGDKK,inactive
15,AEIKMLLLQIHDS,0.078 ± 0.23
16,SLSMATFKAILSLFADTWWR,inactive
17,VHLQGITSITVGIWPHKHLD,inactive
18,MCDCL,inactive
19,LDFANCFLVQCL,inactive
20,WRVADTTEARMTGWGVWQWY,inactive
21,TLRLLDTVMWHKLGGTRAMS,inactive
22,KYCYIEWN,inactive
23,PYGLLQFNG,inactive

row,Substance,amyloid nucleation score
1,LSFSLWNLEYIEISRRNLTL,1.2 ± 0.097
2,LSLKRHLYLKVDASLTCVRT,inactive
3,NCWVNKIDVFLAESSMQCKA,inactive
4,MFINECVSVYDQF,inactive
5,YDCCMLHWIVFGGIVDGMCL,inactive
6,CFMLSDGHTCFVLMSGWFSS,inactive
7,IDGSYAFSKKPDPNSVKYIM,inactive
8,TAESEMNQCVLSRYFSSAIR,inactive
9,LFLYLCTVYNDFKELQPRNL,2.67 ± 0.07
10,VWTRTWLLMTCHCNRFKDCS,1.67 ± 0.12
11,NTRTLSMYAVHGNIRVFMAE,0.917 ± 0.17
12,SLYYSTCIK,inactive
13,GVYHIQPCMRCRLHKGGSDS,inactive
14,HVPYIHRIFIWTYK,inactive
15,YVVEICAV,inactive
16,REWIGLSTYDSA,inactive
17,IIPYCRS,inactive
18,DCVYSSPCGVALIDLGAGLK,inactive
19,PECFVTGIRGTSCCRESVD,inactive
20,YLLVHLAKCIFNWHLSSIEM,-0.109 ± 0.78
21,SLVNGAWLAVMNMSRCLWIF,inactive
22,LTNLCES,inactive
23,VMSLTR,inactive

row,Substance,amyloid nucleation score
1,FLNSKGFTIAGYKNSKWGSR,inactive
2,PDAVTILGGVYHVVQSWG,inactive
3,RVVSSGRGNSHTAATGWLWQ,inactive
4,LNYIIRRLIVIILFSQHQYY,inactive
5,LIPSKRTSDRLFLGPATLDF,inactive
6,FLRKFRLTLIYVTRASWLGG,inactive
7,RITLSIDLLSSEYNRIAPRR,1.82 ± 0.089
8,PVVLLSWELMILLWVNSFAL,inactive
9,MTLRRKLSMTAV,inactive
10,YNDKGTV,inactive
11,KCKFNWVCEVVR,inactive
12,IKKHCV,inactive
13,LGLMLDILRKQDC,inactive
14,GVGNPGWAVLM,inactive
15,ALGCPGSQNLYFGSGSPAWS,inactive
16,LLYVICPVRINLRHWRATDS,0.487 ± 0.17
17,GTLTVYNRDFRDIGDFKIYA,inactive
18,TVEQYWRNEREWF,inactive
19,MRHEHAYSIPAHCIYELIMM,inactive
20,KENFASVCCGCYPMQPPGIM,inactive
21,GVVSMVYINKWTRFWVPRPS,inactive
22,DIVTTHVGKSLG,inactive
23,LLKCYRPFSVFIYFNVLASG,inactive

row,Substance,amyloid nucleation score
1,RSYVTILDAFSWIM,-0.239 ± 0.66
2,HILVKITR,0.359 ± 0.71
3,CLVSTGYHVRCVIVFMTTQG,inactive
4,LIRTARSLYWAYVHLAVSWR,inactive
5,FRFSMSL,inactive
6,MFGRYSLLDILPLNMIRGNI,inactive
7,EQSTRKGNR,inactive
8,RMCLITTYTRVFLWLHT,inactive
9,DSADVMIAYASVVVVTIECC,inactive
10,YSGTRVPR,0.471 ± 0.29
11,IDELLSLQLHRIHKLLEMHG,inactive
12,MPYDFPVVHNIDFFG,inactive
13,CMLNRNFWVVYSHVGRRRL,inactive
14,WQRWMA,inactive
15,IYNNSYKFCILLVTWTIEVQ,inactive
16,LFYLYF,inactive
17,TQMILWVM,inactive
18,NMCSFFFRVSPVLQVQVSLV,1.61 ± 0.075
19,YFRNHSRVDDLDGGRRDVFR,inactive
20,YCFICVDSIAL,2.27 ± 0.072
21,HGHDNVEDTCLRFSPAGLST,inactive
22,SAIPVWGKMRGFYLFYETHC,inactive
23,CSRLAQWFMLVSF,inactive

row,Substance,amyloid nucleation score
1,RIFFKVCNVRLSVADFSHYV,1.99 ± 0.051
2,CSLTKAVFQRQPLRRSKGTK,inactive
3,SQVGMSPYRSCSINKWCPGI,inactive
4,RSVKSIDSHMAKESF,inactive
5,YLTMLWLFHLRERAALMGLN,inactive
6,QRFVSIFPGI,inactive
7,NFLLVPYLSPKLDMGGYHLW,inactive
8,VMTAGWYLFLLSGSEGYVVS,-0.325 ± 1.2
9,YIFFMDLNYLSSNSITVRAV,1.53 ± 0.074
10,GGRVNWM,inactive
11,HQSNFGDMSLVSNGSFRKAK,inactive
12,VLRRSYYRVSRPELPIWSN,-0.153 ± 1.1
13,WRVLKADDYFFFWWASCFAY,inactive
14,RICWSDINWYNRIFLIAELC,inactive
15,SYYISMVYTVMSMNASFSRS,inactive
16,EKFMPHTELLNVWGLRQILM,inactive
17,FMGSGQVVNTRASGIMGLFF,inactive
18,GCLYGSSSV,inactive
19,QDFKCRRGNY,inactive
20,HRSRISTWMWG,inactive
21,VDSSRIKCSNVN,inactive
22,SWYRVNYTLPC,inactive
23,QCCIMAITLDYFASPRYIVR,0.022 ± 0.52

row,Substance,amyloid nucleation score
1,LRTGCSYNSREGHNTLGRSS,inactive
2,TLFERRCSGTIMHRIQRREF,inactive
3,DYRTH,inactive
4,NVNILFDNLIRDWFVSMWED,inactive
5,PLFWNGSC,inactive
6,ATRSLSDRPLEYCNNVDRKK,inactive
7,NTSDPSNRFLPFLYVRLHSS,inactive
8,WRRMTEPMSAKGLTNYLEST,inactive
9,KWMGKNTKSG,inactive
10,VMSSCKIRCNDTRTPAAHIC,inactive
11,IHDDSKNGK,0.57 ± 0.16
12,RSEVQHKLVSFLSKLIPRAS,inactive
13,FVVKYNWRYDLLIPYQMDLI,inactive
14,SQWIGFIEGCGNWMGYLACV,inactive
15,LDILVRETDQSLWDFQLSSV,0.499 ± 0.13
16,GLANNYGQYRITSRAKLPRQ,inactive
17,PYSTFLLCQGLTNYMYSSMS,inactive
18,VCEGMKMAALRYREERC,inactive
19,LCKQTSTTNLSGV,inactive
20,FMYVRCQIVADTCFGIASWG,-0.032 ± 0.82
21,MYRNECSMLSSIHLTVPSGN,inactive
